# Laboratory results from the DeepSol protein solubility set.
# Assay: soluble on expression in E. coli; label from the status in PepcDB or PDB records
row,Sequence,soluble on expression in E. coli
1,MGSDKIHHHHHHMIFLNRYGFPDQSATSRMISSLAMSMAQRGMNVTVVTSREIHNHPGSVLPATETVRGIHIQRLSSGRFGRHNLMRRSIDYLLFQVLAFAWLLRNVRATDTVIVCTDPPLLSVMSSIAIRLKGALMVNWIMDLFPETAIELGFFRKRARWLAPWLTRARNWSLRSPGMVVCPTEKMAEFLFTQGIAKDRVSVLHHWSDGEEIYPVLPEGNSLRKAWGLQDVFVVGYSGNFGRAHDFGTMLAAAKRLEHRPDIRFLLIGGGHQHAAVKTVVQDLGLQNVIFKPLQPVENLAESLSVADVHLVSLLPELEHCIIPSKFYGIMAAGRPTIFIGDPDGEVPRILRAKRCGSNVEIGETDKLTGIIEELCDDPDTTKAMGDAARRLLCTDYSREKAADAWAALIAGLQTVEPSRPHLAQGISP,not soluble
2,MGSDKIHHHHHHMPEHDVRLQQLTVWLDEQLNDLFRDNAWGEVPAGSLTAASSDASFRRYFRWQGAGHSFVIMDAPPPQENCRPFVAIDHLLASADVHVPLIHAQDLERGFLLLGDLGTQTYLDIINADNADGLFADAIDALLKFQRLPMDAPLPSYDDALLRREVELFPEWYVGRELGLTFTDAQKATWQRVSQLLIDSALAQPKVLVHRDYMPRNLMQSTPNPGVLDFQDAVYGPVTYDITCLFKDAFVSWPQARVEGWLGDYWQQAQAAGIPVHAEFEAFHRASDLMGVQRHLKVIGIFARICHRDGKPRYLGDVPRFFAYINEVIGRRPELAELGELIAELQAGARA,not soluble
3,MIKKVIKRDGREKDFDILRIEHAIKKAEKSIEVNECWDDDALCDILMKIDETNLKKIEIEKVQDIVIDVLNKYNKNVAKAYSDYRKERTKIRQDKSNLMKIIDKIGVETDRDNANVGNNFSSKLLRIASESNKVHNLLK,not soluble
4,QRHQKNQNQQRIQALLEESQRRLKQMINKTHVGLLLINEQGQLFDLNPMAKRLFCLPENVNRQTFAWELFDAGNPNSTTLTLLRDLPKHKELAEISAVETMARRSDGSVFPVLFSLTTFPWHGELYFLATLIDISKRKKAEQSLQLINQELAQRVEERTQALRQAQEQLIESSKMAALGRMSSAITHELNQPLTGLRTLLTTNELLAERGETAMMKANNVLVQKLIDRMASMTSQLKTFAYNKPEKLQALSLTSALEETLRVYQSQLANVDVRVRIPSDLPQIQGEEQRLQQVLGNLISNALDAMQSRDNPQLSIVVTPTNSHVEVVVSDNGCGVALEQLDTIFEPFQTSKKIGEGLGLGLSITANNMRDMNGQVTAKRNPGSGMSFLLRFQLANTID,not soluble
5,IPFPLSAYTHGGEFVRQLDKRILILDGAMGTMIQRYKLGEADFRGERFAEHHKDLKGDNELLSLVRPDVIAEIHRQYLEAGADVIETNTFGATSIAQGDYDLPELAYEMNLESARLARAACDAYSTPEHPRFVAGALGPQPKTASISPDVNDPGARNVTFDELRAAYVEQLNGLLDGGIDIVLIETIFDTLNAKAAIFAVEEAFEARGVRLPVMISGTVTDASGRILSGQTVEAFWNSVRHARPVTIGLNCALGAALMRPYVAELSKICDTYVCVYPNAGLPNPMAETGFDETPADTSALLEEFAQAGLVNMAGGCCGTTPEHIRAIAGKVAALTPRAVPEVPVKTRLSGLEALNIDDETLFVNVGERTNVTGSKMF,not soluble
6,MQRGKVKWFNNEKGYGFIEVEGGSDVFVHFTAIQGEGFKTLEEGQEVSFEIVQGNRGPQAANVTKEA,soluble
7,GPGSMVAKQSTAKGGSRYPPLTADQEKEVTELMELMRTKYDPLPQQLLALQRYNPQMEGTASEGAVAGTFFSPIRNYCYYFLISREWDRQKSFEMMQLSVSYREKNELDSRAELPSAICCRGWEQEKVRIALDKPARPTSQRLDRLSAGIEQYFTFGLHYWDKHGQPVVYLNLGSVDEPGLLKKLKQLANIGQTPNLVMWELVQHLIGVQEQLLFYQQMQYAAGTLKAEADDGLIRSATIVIDLNGLTYKMLWKPALDLFMNMLQTLFQYYPKCVHQILLVNSPPMVMFAYKIVRGALPHGVQRKVHIVNVADTPATMQSFIDAQYVPDYLGGLCHCEGGCVRGYDPHQRGTMKDSGTAKSDTRNVQSGDQDDEAGVVTEEITLKAGQELKRAFSLKRAESVVWEFVSANGRDVAFSTYFVPKKAAPSIDTSKLPTSMLESYVVSKASPSEGSDKYTASDDGIFVIVWDNKKSWFTAKYLQLNVFKQAATLTDGA,not soluble
8,MGEGIGRVFFLKDEVGFQPLSNHQGLVVKLLESWREGDEPLALSPKTKERLLLAARYHDDGKRFTFHIVPDGKGGLTYSFRGHRFRVAQAVQDPYAQALIRGHHDYSTREVVNLAADFLEEGLGHRFPEDLFLLMMADQLEAELAVRLWQRRAGEVRPFVEFDLLPDGEGGFLLDPWPFRVDEVALDFLVYFHPYRGEEAKVVEGWGRALVGALEEGKVPEAFREEKRRVRLRPWAAGARKADDPEAFYDRFGLKPTPFQREVFKVAEGDPAHLLLAPTGTGKTEAAAFPALARGERLVFVLPTRSLVDDLEGRFRCYLKILAQEEGRPKALVVDTGHRQARFRFSPDGQEEATKERHLYHADVILTTLDKLLYRYFGYAEGVKSYTFPRRIHDRRTLFVFDEVHLYEATAWVNFRHLIASLYKAGVRFLVMSATMPGTYREELLLEGTLEHPAAKRPSRVLRYMPQGNPMEIIQSHRGKRVLVVLEEVKEAAELYKRLKGEGVFLYHGRLAEGQRRRVFGEVKRRDKAQEPYLLITTPAIEVGVDLDAEVLVTTLCPPENLLQRLGRVNRRGGGQGEAYVVGETYPDYLGSLPEGYLELLKALDGQDLAQGGEERLRQAIRYPKYLDPRAETFFEALQDYVYGLDLTQEPLHRKGFVATRGWTPSVRLRQGEDEVEVPIDRLVGRKEELTPVRVVERLLTDGETGNRRREEVPLRSGELYGRELVLNYPYPYDPELGFVELPKVFQRLRHPDPQRVQLLYAPEKDAGEAPEGVMDTDQVTGGGRRVLWYLGESAWAEPAKSGEVAEETEEEEEEGD,soluble
9,RESITDSRMAYRTISPFLTDLPQEEMWVLLLNQSGKIISMENLSRGGVSETSADVRLIMHKAVSHLASAIILAHNHPSGTVRPSEQDIQLTQRVQKAATLLGFRLNDHLIIGDDGAYFSFADEGLL,not soluble
10,MREVLLEKLRTEKFLQIALDFIDINDAIKVVNEVKDLENEIIEIGTPLLKSFGIEGIRKIKSLVPDKIIVADTKTADAGDVEVEIAKLGGAHIMTVLGIMDDSTIYSAVKKARELDILVQADLINVKNVYERSKELKQLGVDIIGFHVGLDVQKSRGISVADLKNEIRKVSELNLIISIAGGLNKDRILELIDLPVSIYVVGGAITRSKEPKNVSKEIVNILKGR,not soluble
11,MRPQNTNGDFYVDTTCIDCDTCRWMTPEVFHRVDEMSAVYHQPTNETERLAALQALLSCPTSSIGTVEKLEHHHHHH,not soluble
12,TLDPNAQQTAYEQLSQSGYEGAVVALRPSTGEVLAMASSPSYDPNQIVDPATAEDAWAEYTSTEGAPLLNHATQESLPPGSIFKIITTAAALENGYSADSTVTAEAAVTLPGTNTTLTNYGGQTCAGGGTTTLLTAFQLSCNTAFVETGIDVGADALRASAEDFGVGQTYSLGLDNVPGGLGEIPDDAALGQSSIGQRDVQMNVLQAAVMAGTVSNGGVRMEPYLVSRVTGQDLSELSTHKPKSVGGVEPEIAEQLKTLMEASERNTSGYTGIQIASKTGTAEHGDENTPPHTWYVAFNNDIAVAVLVKDGGGFGTSATGGQVAAPIGRAVLQAAGGF,not soluble
13,MGSDKIHHHHHHMIDQLYRKAVLTVAERPQVEQLARQKMWNLAERFVAGESIESAIQAVQALERDGIAGNLDLLGEFIDSPAKCTEFADDVIKLIEAAHAAGIKPYVSIKLSSVGQGKDENGEDLGLTNARRIIAKAKEYGGFICLDMEDHTRVDVTLEQFRTLVGEFGAEHVGTVLQSYLYRSLGDRASLDDLRPNIRMVKGAYLEPATVAYPDKADVDQNYRRLVFQHLKAGNYTNVATHDERIIDDVKRFVLAHGIGKDAFEFQMLYGIRRDLQKQLAAEGYRVRVYLPYGRDWYAYFSRRIAETPRNAAFVVQGMLKG,not soluble
14,MTHEYQDLITIFNDTFLEQFNTTLELGGDEPIYLPADDEHPHHRIIFARGFYASALHEIAHWCVAGPERRLMEDFGYWYEPDGRTEAVQAEFEKVEIRPQAYEWILATSAGFPFTVSCDNLHGDFEPDRLGFMQKVHKEVLGILEAGLPPRVKMLSDALRAFYQTKPLEASDFSVK,not soluble
